Results on five sequences are retold here after the Immune Epitope Database (IEDB).

Experiment [1] addresses HLA-B*58:01. Put plainly: IEDB peptide-MHC binding, purified MHC/competitive/radioactivity; filed as Kd, often an IC50 or EC50 that approximates it; ≥ and ≤ were set here for values at or beyond the usual limits of such assays.
In experiment [2] the target is HLA-B*57:01. The experiment is described as above. Conditions: source organism: Homo sapiens.
Experiment [3] has as its target HLA-A*02:01. Described as above. Conditions: source organism: Homo sapiens.
In the next experiment the target is HLA-A*02:07. Described as above. Particulars: source organism: Homo sapiens.
The next experiment deals with HLA-A*29:02. The experiment is described as above. Conditions: source organism: Homo sapiens.
Experiment [4] has as its target HLA-B*15:02. Put plainly: IEDB peptide-MHC binding, purified MHC/competitive/fluorescence; filed as Kd, often an IC50 or EC50 that approximates it; ≥ and ≤ were set here for values at or beyond the usual limits of such assays. Particulars: source organism: Homo sapiens.
The target of experiment [5] is HLA-B*46:01. The description is as above. Conditions: source organism: Homo sapiens.
The target of experiment [6] is HLA-B*58:01. Briefly: IEDB peptide-MHC binding, cellular MHC/competitive/fluorescence; ≥ and ≤ were set here for values at or beyond the usual limits of such assays. Particulars: source organism: Human herpesvirus 4 strain B95-8.
In another experiment the target is HLA-B*27:05. Briefly: IEDB peptide-MHC binding, purified MHC/direct/fluorescence; filed as Kd, often an IC50 or EC50 that approximates it; ≥ and ≤ were set here for values at or beyond the usual limits of such assays.
For the next experiment, the target named is HLA-B*07:02. Described as above.
For another experiment, the target named is HLA-A*11:01. The experiment is described as above.
Another experiment concerns the target HLA-B*15:01. The experiment is described as above.
The next experiment deals with HLA-B*08:03. The description is as above. Particulars: source organism: Giardia lamblia ATCC 50803.
In experiment [7] the target is HLA-B*58:01. The description is as above.
A further experiment addresses HLA-A*01:01. The description is as above.
Another experiment concerns the target HLA-B*15:17. The experiment is described as above.
The target of experiment [8] is HLA-B*15:02. The experiment is described as above. Conditions: source organism: Giardia lamblia ATCC 50803.
The target in experiment [9] is HLA-B*57:01. The description is as above.
For the next experiment, the target named is HLA-A*31:01. The description is as above.
Experiment [10] addresses HLA-B*46:01. The description is as above.
The target in another experiment is HLA-A*68:02. Described as above. Conditions: source organism: Giardia lamblia ATCC 50803.
For another experiment, the target named is HLA-B*48:01. Described as above.
In another experiment the target is HLA-A*26:01. Described as above.
For a further experiment, the target named is HLA-A*69:01. The experiment is described as above.
A further experiment concerns the target HLA-B*15:09. Briefly: IEDB peptide-MHC binding, purified MHC/competitive/fluorescence; filed as Kd, often an IC50 or EC50 that approximates it; ≥ and ≤ were set here for values at or beyond the usual limits of such assays. Particulars: source organism: Giardia lamblia ATCC 50803.
The target in a further experiment is HLA-A*30:01. The description is as above. Particulars: source organism: Giardia lamblia ATCC 50803.
For experiment [11], the target named is HLA-A*02:01. The experiment is described as above. Particulars: source organism: Giardia lamblia ATCC 50803.
A further experiment has as its target HLA-A*02:03. The experiment is described as above. Conditions: source organism: Giardia lamblia ATCC 50803.
The next experiment concerns the target HLA-B*08:01. The description is as above. Particulars: source organism: Giardia lamblia ATCC 50803.
In the next experiment the target is HLA-B*18:01. Briefly: IEDB peptide-MHC binding, purified MHC/direct/fluorescence; filed as Kd, often an IC50 or EC50 that approximates it; ≥ and ≤ were set here for values at or beyond the usual limits of such assays. Conditions: source organism: Burkholderia mallei.
A further experiment concerns the target HLA-B*08:02. Described as above. Conditions: source organism: Burkholderia mallei ATCC 23344.
In another experiment the target is HLA-B*40:01. Described as above. Conditions: source organism: Burkholderia mallei.
The next experiment deals with HLA-B*51:01. The experiment is described as above. Particulars: source organism: Burkholderia mallei.
Experiment [12] has as its target HLA-A*02:01. The description is as above. Particulars: source organism: Burkholderia mallei.
The target of the next experiment is HLA-B*39:01. The experiment is described as above. Conditions: source organism: Burkholderia mallei ATCC 23344.
In a further experiment the target is HLA-A*03:01. Described as above. Particulars: source organism: Burkholderia mallei.
The target of the next experiment is HLA-B*38:01. The description is as above. Particulars: source organism: Burkholderia mallei ATCC 23344.
For the next experiment, the target named is HLA-A*30:02. Briefly: IEDB peptide-MHC binding, purified MHC/competitive/radioactivity; filed as Kd, often an IC50 or EC50 that approximates it; ≥ and ≤ were set here for values at or beyond the usual limits of such assays. Particulars: source organism: Dengue virus 1 Brazil/97-11/1997.
The target of a further experiment is HLA-A*80:01. Put plainly: IEDB peptide-MHC binding, purified MHC/direct/fluorescence; filed as Kd, often an IC50 or EC50 that approximates it; ≥ and ≤ were set here for values at or beyond the usual limits of such assays. Conditions: source organism: Dengue virus 1 Singapore/S275/1990.
Setting [13] is: source organism: Giardia lamblia ATCC 50803.
[14] abbreviates: source organism: Burkholderia mallei.

As usually defined, the Kd is the free concentration of one partner at which half of the binding sites on the other are occupied at equilibrium, for simple one-to-one binding. FIKDGSSTY: the Kd was not below 39.8 µM with HLA-B*58:01 [1] (source organism: Homo sapiens); not below 61.3 µM with HLA-B*57:01 [2]; not below 78.1 µM with HLA-A*02:01 [3]; not below 62.7 µM in the experiment with HLA-A*02:07; 0.516 µM with HLA-A*29:02; 0.0039 µM with HLA-B*15:02 [4]. For the same sequence, in the experiment with HLA-B*46:01 [5], the Kd was determined as 0.0167 µM.

Usually IC50 stands for the point on the concentration scale where inhibition reaches its midpoint. Read a low IC50 as greater potency. The sequence LSIFDTSLF had an IC50 in the experiment with HLA-B*58:01 [6] of 5 µM.

Turning to QLKQRDALF, the dissociation constant (Kd) in the experiment with HLA-B*27:05 (setting [13]) is not below 20 µM; with HLA-B*07:02 (setting [13]), not below 20 µM; in the experiment with HLA-A*11:01 (setting [13]), not below 20 µM; with HLA-B*15:01 (setting [13]) it was 0.027 µM; with HLA-B*08:03, 0.17 µM; with HLA-B*58:01 [7] (setting [13]), not below 20 µM. Also, the dissociation constant Kd with HLA-A*01:01 (setting [13]) was not below 20 µM; in the experiment with HLA-B*15:17 (setting [13]), 0.0657 µM; with HLA-B*15:02 [8] it was 0.029 µM; with HLA-B*57:01 [9] (setting [13]) it was 1.46 µM; with HLA-A*31:01 (setting [13]) it was not below 20 µM; with HLA-B*46:01 [10] (setting [13]), not below 20 µM. Also, the Kd with HLA-A*68:02, with HLA-B*48:01 (setting [13]), in the experiment with HLA-A*26:01 (setting [13]), with HLA-A*69:01 (setting [13]), in the experiment with HLA-B*15:09 and with HLA-A*30:01 was not below 20 µM throughout. Further, the Kd in the experiment with HLA-A*02:01 [11] was not below 20 µM; with HLA-A*02:03, not below 20 µM; with HLA-B*08:01, 0.135 µM.

AVAVARVAA: the Kd with HLA-B*18:01 was not below 20 µM; with HLA-B*27:05 (setting [14]) it was not below 20 µM; with HLA-B*08:02, not below 20 µM; with HLA-B*07:02 (setting [14]), 0.217 µM; with HLA-A*11:01 (setting [14]), not below 20 µM; with HLA-B*15:01 (setting [14]), 4.21 µM. In addition, the Kd with HLA-B*58:01 [7] (setting [14]), in the experiment with HLA-A*01:01 (setting [14]), in the experiment with HLA-B*15:17 (setting [14]), in the experiment with HLA-B*40:01, in the experiment with HLA-B*57:01 [9] (setting [14]) and with HLA-A*31:01 (setting [14]) was not below 20 µM throughout. For the same sequence, the Kd in the experiment with HLA-B*46:01 [10] (setting [14]), with HLA-B*51:01, with HLA-A*02:01 [12], with HLA-B*48:01 (setting [14]), in the experiment with HLA-B*39:01 and with HLA-A*26:01 (source organism: Burkholderia mallei ATCC 23344) was not below 20 µM in each case. Moreover, the Kd in the experiment with HLA-A*03:01, with HLA-B*38:01 and with HLA-A*69:01 (setting [14]) was not below 20 µM in each case.

For the sequence KSAAIDGEY, the Kd with HLA-B*58:01 [1] (source organism: Dengue virus 1 Brazil/97-11/1997) was 0.00658 µM; with HLA-A*30:02, 0.703 µM; with HLA-A*80:01 it was 0.0441 µM.
